# T1: canine beta-NGF (cNGF) (canine, UniProt Q29074 110-229 (pig entry))
# T1 chain: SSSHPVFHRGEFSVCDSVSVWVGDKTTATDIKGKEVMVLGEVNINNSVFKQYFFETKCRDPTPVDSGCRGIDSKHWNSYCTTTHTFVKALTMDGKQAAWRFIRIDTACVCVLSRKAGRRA
# Legend:
# [1] = molecular target: T1, canine beta-NGF (cNGF); assay: cell-based or functional assay
# [2] = molecular target: T1, canine beta-NGF (cNGF); assay: SPR (Biacore)
# [3] = molecular target: T1, canine beta-NGF (cNGF); assay: cell-based or functional assay
Binder,IC50 [nM] (TrkA cell based assay) [1],Kd [2],"Average Max % Inhib. (pERK 1/2, CHO cells expressing human TrkA) [3]","IC50 (pERK 1/2, CHO cells expressing human TrkA) [3]"
"H3AQC23L5A (antibody, V domains shown, Caninized IgG) VH: EVQLVESGGDLARPGGSLKLSCVVSGFTLTQYGINWVRQAPGKGLQWVTVIWATGATDYNSALKSRFTVSRDNAMNTVYLQMNSLRVEDTAVYYCARDGWWYATSWYFDVWGQGTLVTVSS VL: DIVMTQTPLSLSVSPGEPASISCKASQDINHYLNWFRQKPDGTVKLLIYYTSSLHSGVPSRFSGSGSGTDFTLRISRVEADDAGVYYCQQGDHFPRTFGQGT",2.32 nM,0.089 nM,,
"H3A02B4VL1 (antibody, V domains shown, Caninized IgG) VH: EVQLVESGGDLARPGGSLKLSCVVSGFTLTQYGINWVRQAPGKGLQWVTVIWATGATDYNSALKSRFTVSRDNAMNTVYLQMNSLRVEDTAVYYCARDGWWYATSWYFDVWGQGTLVTVSS VL: EIVMTQSPASLSLSQEEKVTITCRASQDISNYLNWYQQKPGQAPKLLIYYTSRLHSGVPSRFSGSGSGTDFSFTISSLEPEDVAVYYCQQGNMFPYTFGGGT",1.4 nM,0.16 nM,,
"H3AQC23L2AL3 (antibody, V domains shown) VH: EVQLVESGGDLARPGGSLKLSCVVSGFTLTQYGINWVRQAPGKGLQWVTVIWATGATDYNSALKSRFTVSRDNAMNTVYLQMNSLRVEDTAVYYCARDGWWYATSWYFDVWGQGTLVTVSS VL: DIVMTQTPLSLSVSPGEPASISCRASQSISNNLNWFRQKPDGTVKLLIYYISSFHSGVPSRFSGSGSGTDFTLRISRVEADDAGVYYCQQGDHFPYTFGQGT",2.57 nM,,,
"H3AQC23L2AL1 (antibody, V domains shown) VH: EVQLVESGGDLARPGGSLKLSCVVSGFTLTQYGINWVRQAPGKGLQWVTVIWATGATDYNSALKSRFTVSRDNAMNTVYLQMNSLRVEDTAVYYCARDGWWYATSWYFDVWGQGTLVTVSS VL: DIVMTQTPLSLSVSPGEPASISCKASQSINHYLNWFRQKPDGTVKLLIYYISSFHSGVPSRFSGSGSGTDFTLRISRVEADDAGVYYCQQSHTLPYTFGQGT",4.4 nM,,,
"H3A02B4L1AL1 (antibody, V domains shown, Caninized IgG) VH: EVQLVESGGDLARPGGSLKLSCVVSGFTLTQYGINWVRQAPGKGLQWVTVIWATGATDYNSALKSRFTVSRDNAMNTVYLQMNSLRVEDTAVYYCARDGWWYATSWYFDVWGQGTLVTVSS VL: EIVMTQSPASLSLSQEEKVTITCKASQDINHYLNWYQQKPGQAPKLLIYYTSRLHSGVPSRFSGSGSGTDFSFTISSLEPEDVAVYYCQQGNMFPYTFGGGT",1.56 nM,2 nM,,
"H3AQC2301B12L2AL1 (antibody, V domains shown, Caninized IgG) VH: EVQLVESGGDLARPGGSLKLSCVVSGFTLTQYGINWVRQAPGKGLQWVTVIWATGATDYNSALKSRFTVSRDNAMNTVYLQMNSLRVEDTAVYYCARDGWWYATSWYFDVWGQGTLVTVSS VL: DIVMTQTPLSLSVSPGEPASISCKASQSINHYLNWFRQKPDGTVKLLIYYTSRLHSGVPSRFSGSGSGTDFTLRISRVEADDAGVYYCQQGSTLPRTFGQGT",0.99 nM,0.435 nM,,
"H3AQC2301B12L5AL2 (antibody, V domains shown, Caninized IgG) VH: EVQLVESGGDLARPGGSLKLSCVVSGFTLTQYGINWVRQAPGKGLQWVTVIWATGATDYNSALKSRFTVSRDNAMNTVYLQMNSLRVEDTAVYYCARDGWWYATSWYFDVWGQGTLVTVSS VL: DIVMTQTPLSLSVSPGEPASISCRASQDISNYLNWFRQKPDGTVKLLIYYTSSLHSGVPSRFSGSGSGTDFTLRISRVEADDAGVYYCQQGSTLPRTFGQGT",9.7 nM,12.5 nM,,
"H3AQC2301B12LC (antibody, V domains shown, Caninized IgG, light chain QC2301B12VK) VH: EVQLVESGGDLARPGGSLKLSCVVSGFTLTQYGINWVRQAPGKGLQWVTVIWATGATDYNSALKSRFTVSRDNAMNTVYLQMNSLRVEDTAVYYCARDGWWYATSWYFDVWGQGTLVTVSS VL: DIVMTQTPLSLSVSPGEPASISCRASQDISNYLNWFRQKPDGTVKLLIYYTSRLHSGVPSRFSGSGSGTDFTLRISRVEADDAGVYYCQQGSTLPRTFGQGT",0.8 nM,1.13 nM,,
"H3AQC2301B12L1AL1 (antibody, V domains shown, Caninized IgG) VH: EVQLVESGGDLARPGGSLKLSCVVSGFTLTQYGINWVRQAPGKGLQWVTVIWATGATDYNSALKSRFTVSRDNAMNTVYLQMNSLRVEDTAVYYCARDGWWYATSWYFDVWGQGTLVTVSS VL: DIVMTQTPLSLSVSPGEPASISCKASQSINHYLNWFRQKPDGTVKLLIYYTSRLHSGVPSRFSGSGSGTDFTLRISRVEADDAGVYYCQQGSTLPRTFGQGT",0.65 nM,1.07 nM,,
"H3AQC2301B12L6AL2 (antibody, V domains shown) VH: EVQLVESGGDLARPGGSLKLSCVVSGFTLTQYGINWVRQAPGKGLQWVTVIWATGATDYNSALKSRFTVSRDNAMNTVYLQMNSLRVEDTAVYYCARDGWWYATSWYFDVWGQGTLVTVSS VL: DIVMTQTPLSLSVSPGEPASISCRASQDISNYLNWFRQKPDGTVKLLIYYVTSLHAGVPSRFSGSGSGTDFTLRISRVEADDAGVYYCQQGSTLPRTFGQGT",10 nM,,,
"H3AQC23L6A (antibody, V domains shown) VH: EVQLVESGGDLARPGGSLKLSCVVSGFTLTQYGINWVRQAPGKGLQWVTVIWATGATDYNSALKSRFTVSRDNAMNTVYLQMNSLRVEDTAVYYCARDGWWYATSWYFDVWGQGTLVTVSS VL: DIVMTQTPLSLSVSPGEPASISCKASQDINHYLNWFRQKPDGTVKLLIYYVTSLHAGVPSRFSGSGSGTDFTLRISRVEADDAGVYYCQQGDHFPRTFGQGT",16.9 nM,,,
"15H02-02E01 (antibody, IgG1, V domains shown) VH: EVQLEQSGPGLVAPSQSLSITCTVSGFSLTGYGVNWVRQPPGKGLEWLGMIWGDGSTDYNSALKSRLSISKDNSKSQVFLKMNSLQTDDTARYYCARDGYYYGTTWYFDVWGAGTTVTVSS VL: DIVLTQSTSSLSASLGDRVTISCRASQDISNYLNWYQQKPDGTIKLLIYYTSRLHSGVPSRFSGSGSGTDYSLTISNLEQEDIATYFCQQGSTLPRTFGGGT",,,88.2%,18.8 nM
"01B12 Chimera (antibody, V domains shown, Mouse variable domains on canine IgG constant regions; 184 and 160; also called Chim-01B12) VH: QVQLKESGPGLVAPSQSLSITCTVSGFSLTGYGVNWVRQPPGKGLEWLGMIWGDGSTDYNSALKSRLSISKDNSKSQVFLKMNSLQTDDTARYYCARDGYYYGTTWYFDVWGAGTTVTV VL: DIQMTQTTSSLSASLGDRVTISCRASQDISNYLNWYQQKPDGTIKLLIYYTSRLHSGVPSRFSGSGSGTDYSLTISNLEQEDIATYFCQQGSTLPRTFGGGT",1.02 nM,1.18 nM,,
"20D11-02E10 (antibody, IgG1, V domains shown) VH: EVQLEESGPGLVAPSQSLSITCTVSGFSLTGYGVNWVRQPPGKGLEWLGMIWGDGSTDYNSALKSRLSISKDNSKSQVFLKMNSLQTDDTARYYCARDGYYYGTTWYFDVWGAGTTVTVSS VL: DIVITQTPLSLPVSLGDQASISCRSSQSIVHINRHTYLGWYLQKPGQSLKLLIYGVSNRFSGVPDRFSGSGSGTDFTLKISRVEAEDMGVYYCFQGTHVPFTFGSGT",,,78.1%,5.5 nM
"30E01-02A11 (antibody, IgG1, V domains shown) VH: QVKLEESGPGLVAPSQSLSITCTVSGFSLTGYGVNWVRQPPGKGLEWLGMIWGDGSTDYNSALKSRLSISKDNSKSQVFLKMNSLQTDDTARYYCARDGYYYGTTWYFDVWGAGTTVTVSS VL: DIVLTQTTSSLSASLGDRVTISCRASQDISNYLNWYQQKPDGTIKLLIYYTSRLHSGVPSRFSGSGSGTDYSLTISNLEQEDIATYFCQQGSTLPRTFGGGT",,,72.4%,9.8 nM
"02B04-02A08 (antibody, V domains shown) VH: EVKLEESGPGLVAPSQSLSITCTVSGFSLTGYGVNWVRQPPGKGLEWLGMIWGDGSTDYNSALKSRLNISKDNSKSQVFLKMDSLQTDDTARYYCARGGYDYDVPFFDYWGQGTTLTVSS VL: DIVMTQTTSSLSASLGDRVTISCRASQDISNYLNWYQQKPDGTVKLLIYYTSRLHSGVPSRFSGSGSGTDYSLTISNLEQEDIATYFCQQGNMFPYTLGGGT",,,82.2%,4 nM
"26C08-02F06 (antibody, IgG1, V domains shown) VH: EVKLEESGPGLVAPSQSLSITCTVSGFSLTGYGVNWVRQPPGKGLEWLGMIWGDGSTDYNSALKSRLSISKDNSKSQVFLKMNSLQTDDTARYYCARGGYDYDVSFFDYWGQGTTLTVSS VL: DIVLTQTTSSLSASLGDRVTISCRASQDISNYLNWYQQKPDGTVKLLIYYTSRFHSGVPSRFSGSGSGTDYSLTISNLEHEDIATYFCQQGNTLPYTFGGGT",,,57.4%,7.1 nM
"31F05-02B03 (antibody, IgG1, V domains shown) VH: EVQLQQSGPGLVAPSQSLSITCTVSGFSLTGYGVNWVRQPPGKGLEWLGMIWGDGSTDYNSALKSRLSISKDNSKSQVFLKMNSLQTDDTARYYCARDGYYYGTTWYFDVWGAGTTVTVSS VL: DIQMTQTTSSLSASLGDRVTISCRASQDISNYLNWYQQKPDGTIKLLIYYTSRLHSGVPSRFSGSGSGTDYSLTISNLEQEDIATYFCQQGSTLPRTFGGGT",,,86.2%,4.1 nM
"01B12-02B08 (antibody, IgG1, V domains shown) VH: EVKLQESGPGLVAPSQSLSITCTVSGFSLTGYGVNWVRQPPGKGLEWLGMIWGDGSTDYNSALKSRLSISKDNSKSQVFLKMNSLQTDDTARYYCARDGYYYGTTWYFDVWGAGTTVTVSS VL: DIVMTQSTSSLSASLGDRVTISCRASQDISNYLNWYQQKPDGTIKLLIYYTSRLHSGVPSRFSGSGSGTDYSLTISNLEQEDIATYFCQQGSTLPRTFGGGT",,,87.1%,4.7 nM
"16G01-02F03 (antibody, IgG2a, V domains shown) VH: EVQLQESGAELVKPGASVKLSCKASGYTFTNYWMHWVKQRPGQGLEWIGHIDPSDGETHYNQKFKDKATLTVDKSSSTAYMQLTGLTSEDSAVYYCARFLPDYWGQGTSVTVSS VL: DIVLTQTPAIMSASPGEKVTMTCRASSSVSSIYLHWYQQKPGSSPKLWIYSTSNLASGVPARFSGSGSGTSYSLTVSSVEAEDAATYYCQLYDNSPLTFGAGT",,,27.7%,
